In patent publication US20200140526A1 (UNIVERSITY OF ROCHESTER, published 2020):

How the values were obtained:
[1] = target: T1, recombinant (r)HA of pH1N1 A/California/04/2009 (Protein Sciences Corp.) (influenza A virus A/California/04/2009 …, UniProt P26140 18-529)
[2] = target: T1, recombinant (r)HA of pH1N1 …; remark: listed apart in the source

B1: KPF1 human monoclonal antibody (hmAb) (antibody, V domains shown)
VH: EVQLLESGGGLVQPGGSLRISCAASGSTFGDFAMSWVRQSPGRGLEWVSVTSAGGDRTYYADSVKGRFTISRDNSKNTLYLQMNSLRGEDTAMYYCARLDSSGFHYGRPGRNWGQGTLVTVSS
VL: DIQMTHSPPSLSASVGDRITITCQASQDISYYLIWYQQKPGKAPKPLIYDASNLEAGVPSRFSASGSGTDFTLTISSLQPEDLATYYCQQYKSLPYTFGQGTKLEIK
- koff [1]: 3.42e-05 s⁻¹
- kon [1]: 192000 M⁻¹ s⁻¹
- Kd [2]: 0.178 nM
